This is an account of results in paper PMC5847377 (Cell, 2017).

The target in assay [1] is ANG variant H13A (human, UniProt P03950 25-147, H13A). Briefly: ELISA. (In general: An ELISA detects its analyte on a solid surface through an enzyme-linked reagent.)
Assay [2] has as its target Angiogenin (ANG), human recombinant (human, UniProt P03950 25-147). Briefly: equilibrium dialysis. For orientation: In equilibrium dialysis only unbound substance equilibrates across the membrane.

Chain of Angiogenin (ANG), human recombinant (P03950 25-147): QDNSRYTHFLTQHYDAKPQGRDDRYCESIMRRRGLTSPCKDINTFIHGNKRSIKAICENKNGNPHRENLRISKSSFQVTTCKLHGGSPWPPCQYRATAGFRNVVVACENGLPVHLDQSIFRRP
Chain of ANG variant H13A (P03950 25-147 H37A): as the sequence (P03950 25-147) above, with H13A counted along it

TSSEYDSILVEINKR [PLXNB2 peptide hplb2-15-06]: the binding result in assay [1] and in assay [2] was “binds” throughout.
